Our source for the increase of PLA signal relative to non-stimulated cells values is paper PMC10814836.

The target in this test is lamin A/C (human (endogenous in primary myoblasts)) (UniProt P02545). Kind of test: proximity ligation; in situ PLA (Duolink) on methanol-fixed human myoblasts after uniaxial cyclic stretching (10% strain, 1 Hz, 4 h); anti-lamin A/C with anti-desmin or anti-plectin 1; 100 nuclei counted per replicate.
Sequence of UniProt P02545 (P02545 1-646): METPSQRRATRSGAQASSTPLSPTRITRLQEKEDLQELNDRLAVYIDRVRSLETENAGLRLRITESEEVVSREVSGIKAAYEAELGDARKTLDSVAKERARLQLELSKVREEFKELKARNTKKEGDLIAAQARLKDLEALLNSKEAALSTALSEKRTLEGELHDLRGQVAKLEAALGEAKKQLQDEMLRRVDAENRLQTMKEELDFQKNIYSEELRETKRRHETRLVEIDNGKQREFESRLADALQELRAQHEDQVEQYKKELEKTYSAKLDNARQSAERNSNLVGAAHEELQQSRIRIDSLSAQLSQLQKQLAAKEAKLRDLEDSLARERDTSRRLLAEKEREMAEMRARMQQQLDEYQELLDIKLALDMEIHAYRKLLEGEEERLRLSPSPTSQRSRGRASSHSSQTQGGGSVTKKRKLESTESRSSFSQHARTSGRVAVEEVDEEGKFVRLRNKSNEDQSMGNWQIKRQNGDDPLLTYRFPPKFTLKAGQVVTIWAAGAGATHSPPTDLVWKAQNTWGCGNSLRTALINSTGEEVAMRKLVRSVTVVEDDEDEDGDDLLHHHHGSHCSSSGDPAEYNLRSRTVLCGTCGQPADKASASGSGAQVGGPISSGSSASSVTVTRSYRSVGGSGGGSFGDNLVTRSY

plectin 1 (natural protein) had an increase of PLA signal relative to non-stimulated cells of 64%.
